Tests used:
[1] = tested on: Cre recombinase (bacteriophage P1); assay: cell_activity; details: positive control, S. pombe, day 7
[2] = molecular target: T1, phiC31 integrase (Streptomyces bacteriophage phiC31) (UniProt Q9T221); assay: cell_activity; details: attP x attB, S. pombe, day 7
T1 sequence: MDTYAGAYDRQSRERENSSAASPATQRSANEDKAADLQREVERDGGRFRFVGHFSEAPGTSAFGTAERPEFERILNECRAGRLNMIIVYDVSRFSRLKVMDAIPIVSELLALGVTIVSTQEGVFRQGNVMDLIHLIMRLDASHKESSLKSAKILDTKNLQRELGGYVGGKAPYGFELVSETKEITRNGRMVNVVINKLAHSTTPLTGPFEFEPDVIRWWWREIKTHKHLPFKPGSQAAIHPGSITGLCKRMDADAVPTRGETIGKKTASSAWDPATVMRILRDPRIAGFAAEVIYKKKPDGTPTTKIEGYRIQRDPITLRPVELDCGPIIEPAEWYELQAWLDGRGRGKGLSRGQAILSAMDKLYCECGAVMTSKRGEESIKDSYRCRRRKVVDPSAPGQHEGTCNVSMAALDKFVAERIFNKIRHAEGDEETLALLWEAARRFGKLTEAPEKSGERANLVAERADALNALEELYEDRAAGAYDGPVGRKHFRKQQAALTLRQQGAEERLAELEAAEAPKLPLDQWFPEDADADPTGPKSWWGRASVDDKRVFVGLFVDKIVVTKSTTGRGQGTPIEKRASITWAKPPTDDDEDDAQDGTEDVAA

Row | Substance | activity [1] [% excision] | activity [2] [% excision]
1 | lox | 100 | –
2 | phiC31 attP x attB | – | 80

From patent US20110136237
